The values below come from patent publication US20050048073A1, “Methods of determining west nile virus epitopes and method of using the same” (priority 2001, published 2005).

The labels stand for the following.
B1: WNVB7 0017 (peptide)
chain: RPRWIDARVY
B2: WNVB7 0013 (peptide)
chain: EPPEGVKYVL
B3: WNVB7 0015 (peptide)
chain: KPTGSASSLV
B4: WNVB7 0009 (peptide)
chain: TPAAPSYTLK
B5: WNVB7 0010 (peptide)
chain: VPCRGQDELV
B6: WNVB7 0007 (peptide)
chain: NPMILAAGLI
B7: WNVB7 0004 (peptide)
chain: AVKDELNTLL
B8: WNVB7 0006 (peptide)
chain: AAKKKGASLL
B9: WNVB7 0011 (peptide)
chain: GPGHEEPQLV
B10: WNVB7 3415 (peptide)
chain: PRTNTILEDN
B11: WNVB7 3411 (peptide)
chain: PFPESNSPIS
B12: WNVB7 0008 (peptide)
chain: IPAGFEPEML

Several values for one entry are separate records, joined by “and”; a condition that tells them apart may be missing. Equal values may be shown once.

The target of the first assay is HLA B*07 (human). The assay is described as follows: T2B7 HLA stabilisation assay, flow cytometry, peptide at 200 ug/ml.
Conditions: not given
With B1, the Avg. Fold Inc. @ 200 (fold over background) is 1.9 and the Avg. MFI 200 was determined as 1710 MFI.
As for B2, the Avg. Fold Inc. @ 200 (fold over background) is 1.1 and the Avg. MFI 200 is 682 MFI.
Take B3: the Avg. Fold Inc. @ 200 (fold over background) stood at 1.7 and the Avg. MFI 200 was determined as 1070 MFI.
With B4, the Avg. Fold Inc. @ 200 (fold over background) is 1.5 and the Avg. MFI 200 worked out at 954 MFI.
For B5 the same measures were 1 and 659 MFI.
In the case of B6, the Avg. Fold Inc. @ 200 (fold over background) was found to be 1.1 and the Avg. MFI 200 was 945 MFI.
In the same order, the values of B7 are 1 and 842 MFI.
As for B8, the Avg. Fold Inc. @ 200 (fold over background) stood at 1.2 and the Avg. MFI 200 worked out at 708 MFI.
As for B9, the Avg. Fold Inc. @ 200 (fold over background) amounted to 1 and the Avg. MFI 200 is 849 MFI.
In the same order, the values of B10 are 0.9 and 779 MFI.
In the same order, the values of B11 are 1 and 627 MFI.
In the same order, the values of B12 are 1.9 and 1210 MFI.

Another assay concerns the target HLA B*07 (human). The assay can be described thus: T2B7 HLA stabilisation assay, flow cytometry, 10/20/200 ug/ml, four assays.
Conditions: not given
(In general: In flow cytometry, cells or beads pass a laser one at a time.)
For the molecule B1, the Binding number (binding score) stood at 11 and the Binding results (total of four assays) (of 3 concentrations positive, in 1 assay) came to 2.
In the case of B2, the Binding number (binding score) is 6; the Binding results (total of four assays) (of 3 concentrations positive, in 1 assay) is 3 and 2 and 1.
For B3, the Binding number (binding score) was determined as 6.
On to B4, for which the Binding number (binding score) is 8; the Binding results (total of four assays) (of 3 concentrations positive, in 1 assay) was 3 and 1.
B5 yielded a Binding number (binding score) of 4.
B6 yielded a Binding number (binding score) of 2.
B7 showed a Binding number (binding score) of 0.
On the same count and under the same terms, as for B8, the figure is 4.
Molecule B9 had a Binding number (binding score) of 2 and a Binding results (total of four assays) (of 3 concentrations positive, in 1 assay) of 2.
On to B10, for which the Binding number (binding score) stood at 0.
For B11, the Binding number (binding score) was 1 and the Binding results (total of four assays) (of 3 concentrations positive, in 1 assay) turned out to be 1.
For the molecule B12, the Binding number (binding score) is 10 and the Binding results (total of four assays) (of 3 concentrations positive, in 1 assay) amounted to 1.

Staying with this assay, now noted: scale: of 3 concentrations positive, in 2 assays.
As for B3, the Binding results (total of four assays) is 2 and 1.
Same read-out and setting: as for B4, the figure is 2; as for B5, 2.
The same measure, in the same setting: as for B6, the figure is 1.

The assay is the same for the next values; noted with them: scale: of 3 concentrations positive, in 3 assays.
B1: the Binding results (total of four assays) worked out at 3.
Same read-out and setting: as for B12, the figure is 3.

Still in this assay, the particulars now being: scale: of 3 concentrations positive, in 4 assays.
The molecule B7 displayed a Binding results (total of four assays) of 0.
Regarding B8, the Binding results (total of four assays) worked out at 1.
Same read-out and setting: as for B10, the figure is 0.
